Results reported in article PMC2642989, “Enhancement of the Seed-Target Recognition Step in RNA Silencing by a PIWI/MID Domain Protein”.

Tests used:
AfPiwi [1] = target: T1, AfPiwi (UniProt O28951 1-427); assay: ITC; target into AfPiwi-guide; 10 mM Mg2+; isolation 725 nM in text, 990 nM in Table 2; ITC: 50 mM Tris pH 7.5, 150 mM KCl, 5% glycerol, 10 mM MgCl2, 1 mM DTT, 20 C; guide 3.5-24 uM in cell with 3-4 fold excess AfPiwi, target in syringe; details: protein: recombinant
T1 sequence: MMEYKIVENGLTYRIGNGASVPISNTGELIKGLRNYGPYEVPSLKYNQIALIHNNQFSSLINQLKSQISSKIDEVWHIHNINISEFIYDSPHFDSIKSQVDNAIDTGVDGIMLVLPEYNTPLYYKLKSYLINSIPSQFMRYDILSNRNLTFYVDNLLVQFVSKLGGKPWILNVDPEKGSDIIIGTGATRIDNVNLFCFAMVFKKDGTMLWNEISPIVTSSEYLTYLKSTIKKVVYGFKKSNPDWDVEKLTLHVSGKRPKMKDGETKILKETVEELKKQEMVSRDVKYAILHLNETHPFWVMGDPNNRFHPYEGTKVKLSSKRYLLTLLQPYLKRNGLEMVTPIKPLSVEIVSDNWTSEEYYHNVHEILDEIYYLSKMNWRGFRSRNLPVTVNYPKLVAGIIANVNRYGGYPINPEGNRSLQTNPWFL

AfPiwi [2] = target: T1, AfPiwi; assay: ITC; target into AfPiwi-guide; 10 mM Mg2+; isolation 4600 nM; ITC: 50 mM Tris pH 7.5, 150 mM KCl, 5% glycerol, 10 mM MgCl2, 1 mM DTT, 20 C; guide 3.5-24 uM in cell with 3-4 fold excess AfPiwi, target in syringe; details: protein: recombinant
AfPiwi [3] = target: T1, AfPiwi; assay: ITC; target into AfPiwi-guide; 10 mM Mg2+; isolation 1280 nM; ITC: 50 mM Tris pH 7.5, 150 mM KCl, 5% glycerol, 10 mM MgCl2, 1 mM DTT, 20 C; guide 3.5-24 uM in cell with 3-4 fold excess AfPiwi, target in syringe; details: protein: recombinant; one mismatch
AfPiwi [4] = target: T1, AfPiwi; assay: ITC; target into AfPiwi-guide; 10 mM Mg2+; isolation 7520 nM; ITC: 50 mM Tris pH 7.5, 150 mM KCl, 5% glycerol, 10 mM MgCl2, 1 mM DTT, 20 C; guide 3.5-24 uM in cell with 3-4 fold excess AfPiwi, target in syringe; details: protein: recombinant; one mismatch
AfPiwi [5] = target: T1, AfPiwi; assay: ITC; target into AfPiwi-guide; 10 mM Mg2+; isolation 206 nM; ITC: 50 mM Tris pH 7.5, 150 mM KCl, 5% glycerol, 10 mM MgCl2, 1 mM DTT, 20 C; guide 3.5-24 uM in cell with 3-4 fold excess AfPiwi, target in syringe; details: protein: recombinant; T:G mismatch at guide position 8
AfPiwi [6] = target: T1, AfPiwi; assay: ITC; target into AfPiwi-guide; 10 mM Mg2+; isolation 1490 nM; ITC: 50 mM Tris pH 7.5, 150 mM KCl, 5% glycerol, 10 mM MgCl2, 1 mM DTT, 20 C; guide 3.5-24 uM in cell with 3-4 fold excess AfPiwi, target in syringe; details: protein: recombinant; T:G mismatch at guide position 10
AfPiwi [7] = target: T1, AfPiwi; assay: ITC; target into AfPiwi-guide; 10 mM Mg2+; isolation 926 nM; ITC: 50 mM Tris pH 7.5, 150 mM KCl, 5% glycerol, 10 mM MgCl2, 1 mM DTT, 20 C; guide 3.5-24 uM in cell with 3-4 fold excess AfPiwi, target in syringe; details: protein: recombinant; T:G mismatch at guide position 1
AfPiwi [8] = target: T1, AfPiwi; assay: ITC; AfPiwi into preformed duplex; endothermic; ITC: 50 mM Tris pH 7.5, 150 mM KCl, 5% glycerol, 10 mM MgCl2, 1 mM DTT, 20 C; guide 3.5-24 uM in cell with 3-4 fold excess AfPiwi, target in syringe; details: protein: recombinant; blunt
AfPiwi [9] = target: T1, AfPiwi; assay: ITC; target into AfPiwi-guide; 10 mM Mg2+; isolation 1.83 uM; ITC: 50 mM Tris pH 7.5, 150 mM KCl, 5% glycerol, 10 mM MgCl2, 1 mM DTT, 20 C; guide 3.5-24 uM in cell with 3-4 fold excess AfPiwi, target in syringe; details: protein: recombinant
AfPiwi [10] = target: T1, AfPiwi; assay: ITC; target into AfPiwi-guide; 10 mM Mg2+; isolation 3.6 nM; ITC: 50 mM Tris pH 7.5, 150 mM KCl, 5% glycerol, 10 mM MgCl2, 1 mM DTT, 20 C; guide 3.5-24 uM in cell with 3-4 fold excess AfPiwi, target in syringe; details: protein: recombinant; 11 bp, guide 3' overhang 1 nt
AfPiwi [11] = target: T1, AfPiwi; assay: ITC; target into AfPiwi-guide; 10 mM Mg2+; isolation 794 nM; ITC: 50 mM Tris pH 7.5, 150 mM KCl, 5% glycerol, 10 mM MgCl2, 1 mM DTT, 20 C; guide 3.5-24 uM in cell with 3-4 fold excess AfPiwi, target in syringe; details: protein: recombinant; A:G mismatch at guide position 4
AfPiwi [12] = target: T1, AfPiwi; assay: ITC; target into AfPiwi-guide; 10 mM Mg2+; isolation 14600 nM; ITC: 50 mM Tris pH 7.5, 150 mM KCl, 5% glycerol, 10 mM MgCl2, 1 mM DTT, 20 C; guide 3.5-24 uM in cell with 3-4 fold excess AfPiwi, target in syringe; details: protein: recombinant; one mismatch

B1: Fig 3A DNA guide / DNA target (seed) (dsDNA)
DNA 1: TGTAGGTT
DNA 2: AACCTACA
modifications: guide 5' phosphate
In the case of B1, the Kd (AfPiwi [1]) is reported as 29.2 ± 2 nM.

B2: Fig 3B RNA guide / RNA target (seed) (dsRNA)
RNA 1: UUGUUUGU
RNA 2: ACAAACA
modifications: guide 5' phosphate
B2 showed a Kd (AfPiwi [2]) of 82.2 ± 2.7 nM.

B3: Fig 5D RNA mismatch (dsRNA)
RNA 1: UGUAGGUU
RNA 2: ACCUGC
modifications: guide 5' phosphate
B3 showed a Kd (AfPiwi [3]) of 2030 ± 150 nM.

B4: Fig 5E DNA mismatch (dsDNA)
DNA 1: TGTAGGTT
DNA 2: AACCTGCA
modifications: guide 5' phosphate
For B4, the Kd (AfPiwi [4]) was 452 ± 27 nM.

B5: Fig 5F DNA T:G mismatch at position 8 (dsDNA)
DNA 1: TGTAGGTTGCAT
DNA 2: TGCGACCT
modifications: guide 5' phosphate
B5 was tested, and the Kd (AfPiwi [5]) was 672 ± 82 nM.

B6: Fig 5G DNA T:G mismatch at position 10 (dsDNA)
DNA 1: TGTAGGTTGTAT
DNA 2: ATGCAACC
modifications: guide 5' phosphate
For B6, the Kd (AfPiwi [6]) was 2850 ± 350 nM.

B7: Fig 5H DNA T:G mismatch at position 1 (dsDNA)
DNA 1: TGTAGGTT
DNA 2: AACCTACG
modifications: guide 5' phosphate
In the case of B7, the Kd (AfPiwi [7]) is reported as 17 ± 1.1 nM.

B8: Fig S3 preformed DNA duplex (dsDNA)
DNA 1: TTGAGTTT
DNA 2: AAACTCAA
modifications: 5' phosphate on strand 1
B8: binds (AfPiwi [8]).

B9: Fig 3C DNA guide / RNA target (seed) (DNA:RNA)
DNA: TGTAGGTT
RNA: AACCUAC
modifications: guide 5' phosphate
B9 showed a Kd (AfPiwi [9]) of 28 nM.

B10: G12 guide / T11 target (dsDNA)
DNA 1: TGTAGGTTGCAT
DNA 2: TGCAACCTACA
modifications: guide (G12) 5' phosphate
B10 gave a Kd (AfPiwi [10]) of 8.4 nM.

B11: Fig 5A RNA A:G mismatch at position 4 (dsRNA)
RNA 1: UGUAGGUU
RNA 2: AACCGACA
modifications: guide 5' phosphate
B11 gave a Kd (AfPiwi [11]) of 1160 ± 260 nM.

B12: Fig 5B RNA mismatch (dsRNA)
RNA 1: UUGUUUGU
RNA 2: ACAAGCA
modifications: guide 5' phosphate
B12 showed a Kd (AfPiwi [12]) of 152 ± 16 nM.
